From IntAct's records for PubMed 11779505

B1: Mothers against decapentaplegic homolog 4 (Homo sapiens), Q13485 (parent)
chain: MDNMSITNTPTSNDACLSIVHSLMCHRQGGESETFAKRAIESLVKKLKEKKDELDSLITAITTNGAHPSKCVTIQRTLDGRLQVAGRKGFPHVIYARLWRWPDLHKNELKHVKYCQYAFDLKCDSVCVNPYHYERVVSPGIDLSGLTLQSNAPSSMMVKDEYVHDFEGQPSLSTEGHSIQTIQHPPSNRASTETYSTPALLAPSESNATSTANFPNIPVASTSQPASILGGSHSEGLLQIASGPQPGQQQNGFTGQPATYHHNSTTTWTGSRTAPYTPNLPHHQNGHLQHHPPMPPHPGHYWPVHNELAFQPPISNHPAPEYWCSIAYFEMDVQVGETFKVPSSCPIVTVDGYVDPSGGDRFCLGQLSNVHRTEAIERARLHIGKGVQLECKGEGDVWVRCLSDHAVFVQSYYLDREAGRAPGDAVHKIYPSAYIKVFDLRQCHRQMQQQAATAQAAAAAQAAAVAGNIPGPGSVGGIAPAISLSAAAGIGVDDLRRLCILRMSFVKGWGPDYPRQSIKETPCWIEIHLHRALQLLDEVLHTMPIADPQPLD

Variants of: B1
Conditions: with smad1_human SMAD1, Q15797
smad1_human SMAD1, Q15797, sequence (Q15797 whole entry): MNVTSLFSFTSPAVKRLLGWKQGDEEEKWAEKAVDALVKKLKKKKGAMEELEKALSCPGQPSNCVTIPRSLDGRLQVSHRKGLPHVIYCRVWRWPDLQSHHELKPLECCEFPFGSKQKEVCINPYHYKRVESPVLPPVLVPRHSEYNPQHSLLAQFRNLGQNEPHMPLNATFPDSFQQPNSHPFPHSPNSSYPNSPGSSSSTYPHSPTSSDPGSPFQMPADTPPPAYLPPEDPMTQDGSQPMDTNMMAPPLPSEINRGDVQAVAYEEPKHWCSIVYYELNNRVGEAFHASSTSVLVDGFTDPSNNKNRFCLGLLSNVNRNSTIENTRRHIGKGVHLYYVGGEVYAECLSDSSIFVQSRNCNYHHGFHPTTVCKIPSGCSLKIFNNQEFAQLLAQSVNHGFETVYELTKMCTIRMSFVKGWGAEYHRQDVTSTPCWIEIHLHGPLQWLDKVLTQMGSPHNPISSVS

Row | Variant | effect of a mutation on the interaction
1 | K507S | disrupting interaction strength
2 | D351H | disrupting interaction strength
3 | V426S | decreasing interaction strength

More lines, now with the values ahead:

Row | effect of a mutation on the interaction | Variant
4 | disrupting interaction strength | R515S
5 | decreasing interaction strength | D537E
